Laboratory results reported in IntAct's records for PubMed 29039417.

B1: Protein PTHB1 (Homo sapiens), Q3SYG4 (parent)
chain: MSLFKARDWWSTILGDKEEFDQGCLCLANVDNSGNGQDKIIVGSFMGYLRIFSPHPAKTGDGAQAEDLLLEVDLRDPVLQVEVGKFVSGTEMLHLAVLHSRKLCVYSVSGTLGNVEHGNQCQMKLMYEHNLQRTACNMTYGSFGGVKGRDLICIQSMDGMLMVFEQESYAFGRFLPGFLLPGPLAYSSRTDSFLTVSSCQQVESYKYQVLAFATDADKRQETEQQKLGSGKRLVVDWTLNIGEQALDICIVSFNQSASSVFVLGERNFFCLKDNGQIRFMKKLDWSPSCFLPYCSVSEGTINTLIGNHNNMLHIYQDVTLKWATQLPHIPVAVRVGCLHDLKGVIVTLSDDGHLQCSYLGTDPSLFQAPNVQSRELNYDELDVEMKELQKIIKDVNKSQGVWPMTEREDDLNVSVVVSPNFDSVSQATDVEVGTDLVPSVTVKVTLQNRVILQKAKLSVYVQPPLELTCDQFTFEFMTPDLTRTVSFSVYLKRSYTPSELEGNAVVSYSRPTDRNPDGIPRVIQCKFRLPLKLICLPGQPSKTASHKITIDTNKSPVSLLSLFPGFASQSDDDQVNVMGFHFLGGARITVLASKTSQRYRIQSEQFEDLWLITNELILRLQEYFEKQGVKDFACSFSGSIPLQEYFELIDHHFELRINGEKLEELLSERAVQFRAIQRRLLARFKDKTPAPLQHLDTLLDGTYKQVIALADAVEENQGNLFQSFTRLKSATHLVILLIALWQKLSADQVAILEAAFLPLQEDTQELGWEETVDAAISHLLKTCLSKSSKEQALNLNSQLNIPKDTSQLKKHITLLCDRLSKGGRLCLSTDAAAPQTMVMPGGCTTIPESDLEERSVEQDSTELFTNHRHLTAETPRPEVSPLQGVSE
partner: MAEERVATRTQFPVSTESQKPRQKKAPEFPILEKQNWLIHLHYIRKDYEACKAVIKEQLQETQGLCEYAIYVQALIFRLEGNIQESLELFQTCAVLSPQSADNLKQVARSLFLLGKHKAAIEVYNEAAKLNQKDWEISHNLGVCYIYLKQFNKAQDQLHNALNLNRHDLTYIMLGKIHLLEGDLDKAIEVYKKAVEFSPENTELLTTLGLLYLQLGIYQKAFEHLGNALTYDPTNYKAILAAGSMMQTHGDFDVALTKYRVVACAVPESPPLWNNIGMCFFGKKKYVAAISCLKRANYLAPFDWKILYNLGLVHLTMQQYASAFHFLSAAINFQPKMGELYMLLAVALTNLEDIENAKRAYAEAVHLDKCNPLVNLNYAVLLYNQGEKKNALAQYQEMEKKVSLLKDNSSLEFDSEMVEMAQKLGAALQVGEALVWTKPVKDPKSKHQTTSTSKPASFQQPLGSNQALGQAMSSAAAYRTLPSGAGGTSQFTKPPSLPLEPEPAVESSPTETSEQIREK

Variants of: B1
Settings: with bbs4_human BBS4, Q96RK4

Effect of a mutation on the interaction, disrupting interaction strength:
V459A
P463T

Effect of a mutation on the interaction, with no effect:
V416E
P419K
P419A
P419E
L446A
L446K
L446E
S423A
S423K
S423E
V413K
V413A
V413E
K456E
K456A
L411K
L411E
L411A
A455E
A455K
A427E
A427K
L436A
L436K
L436E
K454A
K454E
P438K
P438A
P438E
I451A
I451E
I451K
F421A
F421K
F421E
D409A
D409E
D409K
S414E
S414A
S414K
Q426K
Q426A
Q426E
N412K
N412E
N412A
S458A
S458K
S458E
G433A
G433K
G433E
P464K
P464A
P464E
V459K
V459E
Y460A
Y460E
Y460K
E431A
E431K
E406K
E406A
D422A
D422K
D422E
P463E
P463A
P463K
S439K
S439A
S439E
V442E
V442K
V442A
T445A
T445E
T445K
V430K
V430A
V430E
N420K
N420A
N420E
Q447K
Q447A
Q447E
